Our source for the E1 Mean FITC-A values is patent publication US20260055188A1.

In the test the target is Human-TNFR2-His (manufacturer: SINO, CAT: 10417-H08H) (human) (UniProt P20333). Description: flow cytometry, bridging: CHOK1-18.2 cells (human Claudin18.2) + 150 nM isotype control + human TNFR2-His, anti-His FITC detection; irrelevant antibody (blank 13476). A general note: Flow cytometry measures light scatter and fluorescence of single cells or particles in a stream.

“Human IgG1 kappa Isotype control (Sino Biological, Cat. No.: HG1K) (antibody)”: the E1 Mean FITC-A amounted to 14400.
